In article PMC10494239:

Molecular target: Interleukin-1 receptor 1 on human umbilical vein endothelial cells (human (endogenous in HUVEC)) (UniProt P14778)
UniProt P14778, sequence (P14778 18-569): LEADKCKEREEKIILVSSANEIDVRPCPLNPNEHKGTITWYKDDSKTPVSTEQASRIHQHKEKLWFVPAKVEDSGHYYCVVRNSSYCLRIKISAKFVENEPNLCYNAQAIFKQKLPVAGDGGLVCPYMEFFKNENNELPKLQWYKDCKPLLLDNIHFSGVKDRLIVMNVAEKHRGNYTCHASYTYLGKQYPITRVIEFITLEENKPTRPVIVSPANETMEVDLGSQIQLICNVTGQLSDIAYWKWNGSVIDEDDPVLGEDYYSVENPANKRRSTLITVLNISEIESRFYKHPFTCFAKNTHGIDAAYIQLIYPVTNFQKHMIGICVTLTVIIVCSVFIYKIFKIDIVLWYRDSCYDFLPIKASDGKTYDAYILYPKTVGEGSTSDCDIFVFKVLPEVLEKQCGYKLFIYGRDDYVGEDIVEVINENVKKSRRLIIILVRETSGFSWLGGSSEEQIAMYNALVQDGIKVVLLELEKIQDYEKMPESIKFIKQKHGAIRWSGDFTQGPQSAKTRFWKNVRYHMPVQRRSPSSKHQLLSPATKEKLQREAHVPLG

Substance: cell-surface Interleukin-1α on human primary monocytes (from UniProt P01583 113-271) (ligand)
- percent VCAM1-positive HUVECs (flow cytometry) after 4h with unstimulated monocytes (% VCAM pos. cells): 2.5
- percent VCAM1-positive HUVECs (flow cytometry) after 4h with upLPS-stimulated monocytes (% VCAM pos. cells): 25.9
- percent VCAM1-positive HUVECs (flow cytometry) after 4h with upLPS-stimulated monocytes, HUVECs pre-treated 1h with neutralizing IL1R1 antibody (10 µg/ml, AB-269-NA, R&D Systems) (% VCAM1 pos. cells): 18.6
- percent adhesion of calcein-labeled, LPS-pre-stimulated monocytes to HUVECs (remaining fluorescence after washing): 6.7%
- percent adhesion of calcein-labeled, non-stimulated monocytes to HUVECs (remaining fluorescence after washing): 3.5%
